# Results as given in a protein production outcome set (Wang et al. 2014).
# Assay: label from the status in PepcDB records
row,Sequence,protein production
1,MLCACSGEQFRFEDQPGSPESLATRDFSASGLSSRNGGGDWDSKLEDIQVDEAESTLKEALSLNYEEARALLGRLEYQRGNFDAALQVFKGIDIKVLTPRIIKAIVEKTLPCKPRSKAVIVPPTTMSMHSVSLLLEAILLKARSLEELGSYKEAAEECKIILDVVENALPSGMPDGISGFAKLQDIFQKALELLPLLWKKAGNHHETIASYRRALSRPWNLDPQRLAVTQKSLALVLLYGSVEACPKDNIEEAIVLLMLLVKKMVVGDIQWDPELMDHLTYALSMTGQFEVLANYLEQTLPGVYTRGERWYLLSLCYSAAGIDKAAINLLKMALGPSESRQIPHIPLLLFGAKLCSKDPKHSRDGINFAHRLLDLGNSQSEHLLSQAHKFLGVCYGNAARSSKLDSERVFLQKKSLFSLNEAAKRGKADPELDVIFNLSVENAVQRNVQAALDGAVEYSSMVGGVSTKGWKHLAIVLSAEKRLKDAESILDFTMEEAGDIEKIELLRLKAVLQMAQEQPKKAMKTCSSLLGLIRAQEKSEQSESLLQKFETEAWQDLASVYGKLGSWSDAETCLEKARSMCYYSPRGWNETGLCLEAKSLHEEALISFFLSLSIEPDHVPSIVSIAEVMMKSGDESLPTAKSFLMNALRLDPRNHDAWMKLGHVAKKQGLSQQAAEFYQAAYELELSAPVQSFI,failed
2,MLCLHAPSRCEAAPAFPHTYSHYSEQEQLTALLADFGRTQGLATSFSPGVTGTVSGRFEDVAPEKFLQGMKAAFGVSWYRLGPTLHFYHEAETTRIFISPRVMSAESLYRMLRQSSVLSPQLPAELMPGGAMVVVSGPPAYLDQIQAAVTAFEEAQTGNFGMKVFPLKYAWAEDITVNSMDKTVTLPGVASILRAMVSGSPSSATRVTQETATVDKLSGTGLISQGRQQKESGQSNQAQRGGQASQQDSGGAQDGQQVSIMADPRVNAVIVHDAVYRMPYYESVIGDLDRPVELVEIHAAIVDIDTNFKRDLGVTYQATVGKDQRWAGGADVSTGTDKFTPLPVPGVPQGSGLTLSTIYTMGSDYFLARINALEKNGEARMLGRPSVLTVDNVQATLENTSTYYIQVQGYQAVDLFKVEAGTVLRVTPHIINNDDGTDAIKLVVSVQDDQNNQTTPTSTSTTQAIPPIKQTKINTQAIIGAGQSLLIGGYYYEQKATSADGVPILMNIPVLGNLFKTQSKENKRMERLILITPKVVRLDNLPGTPPRVDDPAFHRTATQSDYAERTPTPPPSRRSGCSRAPDNAPEAASGAAGGTGGTGVTANTEGGTTPQAATSPVPAYGVAP,failed
3,MLDASPATARSPLEKRRPNVCREEQLTLVRLSRPCAQAFIDTIQFWKQGCSGPRWCVGYERRIRYYIIYRHVYATEHQTVFRCCPGWIQWDDEPGCFSSLSSLGTHFSGRECSYQDTRQCLCSQGFHGPHCQYDINECAVDNGGCRDRCCNTIGSYYCRCQAGQKLEEDGRGCEDVDECAVVNGGCQQRCINTLGTFHCECDTGYRRHADERTCIRIELEIVNICEKNNGGCSHHCEPAIGGAHCSCNHGHQLDTDGKTCIALDEQLEEEEEEIDILRFPGRLAQNPPQPFPYLDPSLTASYEDEDNDDADSEAEGEVQGLTALYRVVCLDGTFGLDCSLSCEDCMNGGRCQEGKSGCLCPAEWTGLICNESSVLRTGEDQQAPAGCLKGFFGKNCKRKCHCANNVHCHRVYGACMCDLGRYGRFCHLSCPRGAYGASCSLECQCVEENTLECSAKNGSCTCKSGYQGNRCQEGTIR,failed
4,MLDISFGEFVLIGVVALVVLGPERLPTVARTVGALVARAQRFVANVKADMQQQANLQGLDSLRQDLQDAAHSFRGQLEAEVQQVRDAIDQNAADARALAEQAAEPFHEAERTIHGGLAPDAEAEAREAETHPAEPAPAAQADVPPRDENQLDLFDDLPPHRPPASQPSASQARE,failed
5,MLDKLTVWIENHLAGPMAKIANQRHLRAVRDGIIATLPLIIVGSFFLIIAFPPLPESWGITQFLTSNAATILLPYRMTMYIMALYATFGIGASLAKSYNLDQVSGGILATIAFLLTLVPVAIPEEASKAAGVSGFVLPMANLGGAGMFVGIVTSIIAVEIYRVTDKSKFKITMPDNVPPAVARSFESLTPTLIVMLLIGSITYYLGFDWHTFVGNLVGPLVQAADSLLSVLLLVFLTTFFWFFGIHGASIVGSLARPLWLQLLEENTTAKAAGEALPRIAAEPFYQWFIWIGGAGATIGLAILLAFRAKSEYGSKLGKAILAPSIFNINEPVIFGVPIVLNPILMIPFIFAPMVLATIAWFATKLGLVSEVVFTAPWTLPGPIGAFMATGGDWRAAVLNIVLILVAILIYYPFFVAYDKNELAKEQGKQIEE,failed
6,MLDNLQLTDILATVAVLVSITFLIYFAGKTLITANSFQKGVSLYQQKDYPGAEAAFRKVIAINSTNDVVRLFLGDVLREQGKVAEATELFQEVINRSPKNPQGYLRLATILMQQEKQAEAKTNLQKAQELLQKQRQPETAKRVAKLLEQMNTKTI,failed
7,MLDTYGRKYVNPIIDLGANTLLKLRLTPNGVSIIALIIGVLSSVFLYFDKLILSVVFLWISGYLDSVDGAMARKKNLTSPFGTLLDITFDRIVELSIIFVLALKFQNSRLYLLILTMMILISMTIFLTVGALAQNNGMKSFRYQAGLAERSEGFICFSLMILLSSIKLNLVTNIFSLIIFITIIQRALEAKRLLK,failed
8,MLEAAQGAPASSGRRTRRPGLSEEVLRAYAYACAFCGYDGMLGRNPVGLEAAHIRWHSQDGPDTLANALALCALHHILFGLGVLGLSPGLRIQVSPLYVARSHAGHAVGILHRRPLAPPRPGHPSPGPEHIHWHHQQVFKHAPTPVAR,failed
9,MLEACTKCGTCAEACTMYLGSGRKKIYSPVYRSDMLRKIYKKHFTLTGKLFGPLIGAKDPTEDDINALAESAYRCTVCRRCALACPFGLDNGLITRETRKIFADLGILEHHHHHH,failed
10,MLEGIYLALDKMFGPMLRNTHPMWVVTVSGVILGAFFVLLNYFLVDQEKMKRLQKMAKELQEEFKKARESGDEKKLRKLQQKQLELLRLQNELMKDAFLKPMLITWPIIIIFWGWLKRWYFETAIVKYPFNFFLFDIFHKMYHSALKPDELGYFGWYFLTSYVVGTILRKVLDMA,failed
11,MLEGQLEAGEPKEGTHPEDPCPGAGAAMEKTPAAAEVPREDSNAGEMPSLQQQITSLHQELGRQQSLWADIHRKLQSHMDALRKQNRELREELRGLQRQQWEAGKKPAASPHAGRESHTLALEPAFGKISPLSADEETTPKYAGRKSQSATLLGQRWSSNHLAPPKVTLRAYRL,failed
12,MLEGVARPSLLRRLSCAPGMPAPVRRLAERIEGSHLATRLAEGAFWSFAGSALSRAFALAASVVTARFLGKAQYGELGVLLSTLLTFQAFASLGLGMTATKYVSELRTKDPERAGRILGMSAVLSAATGVLAAALLWAFAPWLASSTIGAPHLTEPLRIAGLGLVFTTMGGAQTGALAGFEAFRTQTQLNVWLGLLGVPIAVVGVWRWGLQGAVWATVVTAALQWALTHVAVRVHARRDRVPVSPRGWWREQRILWTFSLPALAQGVMVGPVSWAAAAILVNQPGGYPEMGAFSAANQWYAAVLFLPNALCGPVLPVLSERVGRGDGPGVRAVLRAAVAMNAAAVIPIVAAGCLASPWLVRIYGPQFADAWPTFAVVLITAGIVAITNPVGYVLAASERLWLGFLMNSGWAAAFLVATVLLVGWGSLGLATGRLLAYALHFGWTLWFAMRFVRAGAARGT,failed
13,MLEIMLMVCIGALAAVMANLGIAVFNDGIRPIVPENLEGRMTRKELGVTAFAMSFGLVIGFGIPISIAGSIILIHSILLGSDIIGLALDRGKVKTTIAAIIGGLYGAGIYMGLQVVVDLFTMLPLNFVDAFNKVGDPVVVSFMVFPAIAIALQFGVKKGIIAFAIAAFARQLIVFTNGAELIKIGSTPVVLSPEGIALVVGMFLLIFFAMREKSEETNLSTLATLFTDRVARIKKHRWILMLSGGLVAAATNLLLIAGDPISLNLLAEGKMSEGGIAALAKAIGFVPLIASTAIATGVYGPIGFTFVFAAGIFAPNLGIALLIGALIIFLEIQLLTKLATFLDRYPGIRASGENIRTAMSRVLEVALLIGGANAADAIVPGFGFFAIAGFYLINEIAGRPIVRMAIGPVGAIIVGIVGNLLVLLGLYTP,failed
14,MLELFLKEEWTTEAKEILRPFGQKKLIGIQMGASNRSRQWFVERWIELAKRIIERDEEVVIVFVGSKNELEEISLVAQALPQDRVFISAGRLSLGAAAALIGELGLLFTPDTGPLHIAVALRVKTISLFAVANPKNSLPDYDQSLHRYIKVDRCCEPCVGKRCAYQKCMEAIGVDEVYEEYKKLQELEHHHHHH,not failed
